T1: extracellular part of human OX40 fused to the transmembrane and intracellular part of hCD40, on CHO cells (human, UniProt P25942 194-277, limits assumed)
T1 construct: domain: transmembrane and intracellular part; also called hOX40 overexpressed on CHO cells; huOX40 (CHO)
T1 sequence: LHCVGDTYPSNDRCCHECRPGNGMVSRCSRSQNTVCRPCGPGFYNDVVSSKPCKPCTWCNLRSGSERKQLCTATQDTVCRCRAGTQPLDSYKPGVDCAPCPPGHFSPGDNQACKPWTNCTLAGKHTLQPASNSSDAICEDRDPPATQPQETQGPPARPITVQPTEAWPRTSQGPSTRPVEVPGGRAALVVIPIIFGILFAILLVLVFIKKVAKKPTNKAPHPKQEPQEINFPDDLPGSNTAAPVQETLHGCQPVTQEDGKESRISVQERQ

T2: OX40 chimera 1549: human OX40 with mouse domains 1A and 4B and non-annotated extracellular region (aa 30-65 … (human; mouse, UniProt P47741 26-61; P47741 125-211)
T2 construct: domain: 1A;domain: 4B and non-annotated extracellular region; Limits derived as for 1544
T2 sequence: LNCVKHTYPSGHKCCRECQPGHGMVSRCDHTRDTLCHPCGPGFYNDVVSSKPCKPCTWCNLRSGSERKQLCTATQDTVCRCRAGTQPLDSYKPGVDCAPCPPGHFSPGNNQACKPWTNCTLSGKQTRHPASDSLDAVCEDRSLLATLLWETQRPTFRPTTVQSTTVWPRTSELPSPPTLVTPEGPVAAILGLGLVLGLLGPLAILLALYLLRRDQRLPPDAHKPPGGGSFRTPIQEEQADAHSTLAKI

T3: OX40 chimera 1546: human OX40 with mouse domains 2A, 2B and module 3 (aa 66-126), on FreeStyle 293-F cells (human; mouse, UniProt P47741 62-124)
T3 construct: domain: 2A, 2B and module 3; Limits derived as for 1544
T3 sequence: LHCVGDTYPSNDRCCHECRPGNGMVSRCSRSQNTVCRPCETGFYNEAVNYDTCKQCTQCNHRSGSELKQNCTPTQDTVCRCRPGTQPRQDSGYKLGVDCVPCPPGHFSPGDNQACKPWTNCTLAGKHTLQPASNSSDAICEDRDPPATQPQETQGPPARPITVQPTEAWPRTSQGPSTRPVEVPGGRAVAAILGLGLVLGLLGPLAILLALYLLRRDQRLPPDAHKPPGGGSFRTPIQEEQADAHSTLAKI

T4: OX40 chimera 1548: human OX40 with mouse module 3 and domains 4A and 4B (aa 108-167), on FreeStyle 293-F cells (human; mouse, UniProt P47741 104-165)
T4 construct: domain: module 3, 4A and 4B; Limits derived as for 1544
T4 sequence: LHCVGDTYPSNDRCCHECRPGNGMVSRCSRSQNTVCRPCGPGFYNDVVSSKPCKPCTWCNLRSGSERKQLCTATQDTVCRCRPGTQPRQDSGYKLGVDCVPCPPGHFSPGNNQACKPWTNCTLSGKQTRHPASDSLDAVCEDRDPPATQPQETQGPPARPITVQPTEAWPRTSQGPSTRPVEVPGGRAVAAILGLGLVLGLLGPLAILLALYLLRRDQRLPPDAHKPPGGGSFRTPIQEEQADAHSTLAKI

T5: OX40 chimera 1547: human OX40 with mouse domain 2B, module 3 and domain 4A (aa 83-141), on FreeStyle 293-F … (human; mouse, UniProt P47741 79-139)
T5 construct: domain: 2B, module 3 and 4A; Limits derived as for 1544
T5 sequence: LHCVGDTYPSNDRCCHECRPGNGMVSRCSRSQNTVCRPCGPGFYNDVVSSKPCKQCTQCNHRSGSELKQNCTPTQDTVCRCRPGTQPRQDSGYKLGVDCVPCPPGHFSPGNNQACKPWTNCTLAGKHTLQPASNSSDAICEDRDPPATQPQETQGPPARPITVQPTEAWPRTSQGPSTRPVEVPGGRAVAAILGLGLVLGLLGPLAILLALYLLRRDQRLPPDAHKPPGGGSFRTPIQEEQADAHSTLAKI


Legend:
[1] = molecular target: extracellular part of OX40 from Macaca mulatta fused to the transmembrane and intracellular part of hCD40, on … (Macaca mulatta; human, UniProt A0A5F7ZKD5 21-541; P25942 194-277); test: flow cytometry, macOX40-HEK cells; 95% confidence interval
Description: (§1) For the assay, the transfected cells were incubated with the test antibodies and controls for 30 min at 4° C. and then detected with a-huIgG-PE (Jackson Immunoresearch) 30 min 4° C. Cells were analyzed by flow cytometry with FACS Verse (BD Biosciences).

[2] = molecular target: T1, extracellular part of human OX40 fused …; test: flow cytometry, cells with human OX40; 95% confidence interval
Description: as §1

[3] = molecular target: T2, OX40 chimera 1549: human OX40 with …; test: flow cytometry, 293-F transfectants
[4] = molecular target: T3, OX40 chimera 1546: human OX40 with …; test: flow cytometry, 293-F transfectants
[5] = molecular target: T4, OX40 chimera 1548: human OX40 with …; test: flow cytometry, 293-F transfectants
[6] = molecular target: T5, OX40 chimera 1547: human OX40 with …; test: flow cytometry, 293-F transfectants
[7] = molecular target: T1, extracellular part of human OX40 fused …; test: flow cytometry, CHO cells with human OX40 (extracellular part on hCD40 transmembrane and intracellular part), anti-huIgG-PE
Description: as §1, with “The extracellular part of human OX40 was fused to the transmembrane and intracellular part of hCD40 and cloned into pcDNA3.0. The vector was subsequently stably transfected into CHO cells. […] For” for “For”

Binder	EC50 [1] [µg/mL]	EC50 [2] [µg/mL]	relative MFI vs isotype control [3]	relative MFI vs isotype control [4]	relative MFI vs isotype control [5]	relative MFI vs isotype control [6]	EC50 (read off the curve) [7] [µg/mL]
anti-OX40 antibody 1482/1483 (antibody, V domains shown, Tested as IgG) VH: EVQLLESGGGLVQPGGSLRLSCAASGFTFSSYAMSWVRQAPGKGLEWVSYISYYSGYTYYADSVKGRFTISRDNSKNTLYLQMNSLRAEDTAVYYCARGYGYLDYWGQGTLVTVSS VL: DIQMTQSPSSLSASVGDRVTITCRASQSISSYLNWYQQKPGKAPKLLIYAASSLQSGVPSRFSGSGSGTDFTLTISSLQPEDFATYYCQQYGSLLTFGQGTKLEIK	0.157 to 0.312	0.082 to 0.182	8.7	0.9	1.1	1	
anti-OX40 antibody 1524/1525 (antibody, V domains shown, Tested as IgG) VH: EVQLLESGGGLVQPGGSLRLSCAASGFTFGSYYMGWVRQAPGKGLEWVSSIGSYYGYTYYADSVKGRFTISRDNSKNTLYLQMNSLRAEDTAVYYCARHDYGALDYWGQGTLVTVSS VL: DIQMTQSPSSLSASVGDRVTITCRASQSISSYLNWYQQKPGKAPKLLIYAASSLQSGVPSRFSGSGSGTDFTLTISSLQPEDFATYYCQQYGPSGLFTFGQGTKLEIK			11.2	0.9	15.4	1	~0.05
anti-OX40 antibody 1168/1135 (antibody, V domains shown, Tested as IgG) VH: EVQLLESGGGLVQPGGSLRLSCAASGFTFSGSSMSWVRQAPGKGLEWVSSISYYGGYTYYADSVKGRFTISRDNSKNTLYLQMNSLRAEDTAVYYCARYFPHYYFDYWGQGTLVTVSS VL: not shown	0.0905 to 0.194	0.0636 to 0.131		0.9	1	1	
anti-OX40 antibody 1164/1135 (antibody, V domains shown, Tested as IgG) VH: EVQLLESGGGLVQPGGSLRLSCAASGFTFYGSSMYWVRQAPGKGLEWVSGIYSSGGYTSYADSVKGRFTISRDNSKNTLYLQMNSLRAEDTAVYYCARGVPHGYFDYWGQGTLVTVSS VL: not shown				0.9	1	1	~0.01

Second part, the binder after the results:

EC50 [1] [µg/mL]	EC50 [2] [µg/mL]	relative MFI vs isotype control [3]	relative MFI vs isotype control [4]	relative MFI vs isotype control [5]	relative MFI vs isotype control [6]	EC50 (read off the curve) [7] [µg/mL]	Binder
0.292 to 0.589	0.172 to 0.429	8.5	0.9	12.7	1		anti-OX40 antibody 1526/1527 (antibody, V domains shown, Tested as IgG) VH: EVQLLESGGGLVQPGGSLRLSCAASGFTFSGYSMYWVRQAPGKGLEWVSGIGYSGYGTYYADSVKGRFTISRDNSKNTLYLQMNSLRAEDTAVYYCARYYFHDYAAYSLDYWGQGTLVTVSS VL: DIQMTQSPSSLSASVGDRVTITCRASQSISSYLNWYQQKPGKAPKLLIYAASSLQSGVPSRFSGSGSGTDFTLTISSLQPEDFATYYCQQYGSDSLLTFGQGTKLEIK
0.722 to 1.41	0.322 to 0.552	13	0.9	1.2	1		anti-OX40 antibody 1542/1135 (antibody, V domains shown, Tested as IgG) VH: EVQLLESGGGLVQPGGSLRLSCAASGFTFGSSSMYWVRQAPGKGLEWVSGIGYYSYSTSYADSVKGRFTISRDNSKNTLYLQMNSLRAEDTAVYYCARGYPHHYFDYWGQGTLVTVSS VL: not shown

Reference: US20210238298A1 (ALLIGATOR BIOSCIENCE, published 2021)
